Measured values as given in PMC5148612, “Mechanism of cargo-directed Atg8 conjugation during selective autophagy” (eLife, 2016).

Assays:
Conditions in all cases: both partners purified
[1] = target: T1, Atg12~Atg5-Atg16-mCherry complex (S. cerevisiae, UniProt P38316 1-186; Q12380 1-294; Q03818 1-150, conjugated to Atg5 (Atg12~Atg5 protein conjugate) | conjugated to Atg12); experiment: microscopy-based protein-protein interaction assay on beads; glutathione beads coated with GST baits at 20 µM, Atg12~Atg5-Atg16-mCherry 5 µM, 25 mM HEPES pH 7.5, 150 mM NaCl, 1 mM DTT, imaged at equilibrium by spinning disc microscopy (Figures 1B, 2F, 2G)
T1 construct: Atg12, S. cerevisiae; Atg5, S. cerevisiae; Atg16, S. cerevisiae; also called Cx; source: E. coli Rosetta pLysS; Atg12~Atg5 conjugate mixed 1:1 with purified Atg16-mCherry, purified by size exclusion chromatography; not shown: His6, N-terminal, cleaved; mCherry, C-terminal, kept; copies: + +
T1 sequence (looked up) 1: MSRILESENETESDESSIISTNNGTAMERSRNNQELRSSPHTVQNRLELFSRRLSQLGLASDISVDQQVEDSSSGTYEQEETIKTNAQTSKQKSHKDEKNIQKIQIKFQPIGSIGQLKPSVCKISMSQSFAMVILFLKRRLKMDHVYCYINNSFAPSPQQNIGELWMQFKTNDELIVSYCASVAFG
T1 sequence (looked up) 2: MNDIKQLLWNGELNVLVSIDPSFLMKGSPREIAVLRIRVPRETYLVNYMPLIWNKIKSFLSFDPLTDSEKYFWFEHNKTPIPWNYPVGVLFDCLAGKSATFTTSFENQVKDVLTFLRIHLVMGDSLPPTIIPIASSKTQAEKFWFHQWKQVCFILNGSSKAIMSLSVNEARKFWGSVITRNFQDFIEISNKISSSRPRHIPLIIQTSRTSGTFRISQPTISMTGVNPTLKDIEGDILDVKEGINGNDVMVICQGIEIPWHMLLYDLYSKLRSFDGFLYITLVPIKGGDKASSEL
T1 sequence (looked up) 3: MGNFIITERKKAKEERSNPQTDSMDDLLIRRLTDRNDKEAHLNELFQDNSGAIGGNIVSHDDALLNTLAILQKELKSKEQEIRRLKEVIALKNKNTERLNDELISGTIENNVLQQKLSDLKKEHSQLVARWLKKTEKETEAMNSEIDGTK

Atg12~Atg5-Atg16 complex = target: T2, Atg12~Atg5-Atg16 complex (S. cerevisiae, UniProt P38316 1-186; Q12380 1-294; Q03818 1-150, conjugated to Atg5 (Atg12~Atg5 protein conjugate) | conjugated to Atg12); experiment: pull-down; GST-fused bait 5 µM and GST-free prey 5 µM with glutathione Sepharose 4B, 1 hr at 4°C; washed with 25 mM HEPES pH 7.5, 150 mM NaCl, 1 mM DTT and 0.1% TritonX100; Western blot (Figures 1A, 1C, 2A, 2C)
T2 construct: Atg12, S. cerevisiae; Atg5, S. cerevisiae; Atg16, S. cerevisiae; conjugate made by co-expression with Atg7 and Atg10 (SMC131); details in Romanov et al., 2012; also called E3-like complex; source: E. coli Rosetta pLysS; Atg12~Atg5 conjugate mixed 1:1 with purified Atg16, purified by size exclusion chromatography; not shown: GST, N-terminal, cleaved; copies: + +
T2 sequence (looked up) 1: T1 sequence (looked up) 1
T2 sequence (looked up) 2: T1 sequence (looked up) 2
T2 sequence (looked up) 3: T1 sequence (looked up) 3

Atg12~Atg5 conjugate = target: T3, Atg12~Atg5 conjugate (S. cerevisiae, UniProt P38316 1-186; Q12380 1-294, conjugated to Atg5 (Atg12~Atg5 protein conjugate) | conjugated to Atg12); experiment: as above
T3 construct: Atg12, S. cerevisiae; Atg5, S. cerevisiae; the two chains are covalently joined; source: E. coli Rosetta pLysS, co-expression of 6xHis-Atg5, Atg12, Atg7 and Atg10, purified
T3 sequence (looked up) 1: T1 sequence (looked up) 1
T3 sequence (looked up) 2: T1 sequence (looked up) 2

Measured: binding result

B1: GST-Atg19 (natural protein, S. cerevisiae, UniProt P35193 1-415, looked up)
chain: MNNSKTNQQMNTSMGYPLTVYDECNKFQLIVPTLDANIMLWCIGQLSLLNDSNGCKHLFWQPNDKSNVRILLNNYDYGHLFKYLQCQRKCSVYIGEGTLKKYNLTISTSFDNFLDLTPSEEKESLCREDAHEDPVSPKAGSEEEISPNSTSNVVVSRECLDNFMKQLLKLEESLNKLELEQKVTNKEPNHRISGTIDIPEDRSELVNFFTELKTVKQLEDVFQRYHDYERLSQECDSKTEIASDHSKKETKIEVEPPNERSLQITMNQRDNSLYFQLFNNTNSVLAGNCKLKFTDAGDKPTTQIIDMGPHEIGIKEYKEYRYFPYALDLEAGSTIEIENQYGEVIFLGKYGSSPMINLRPPSRLSAESLQASQEPFYSFQIDTLPELDDSSIISTSISLSYDGDDNEKALTWEEL
notes: Atg19, S. cerevisiae cargo receptor; also called full length GST-Atg19; Atg19 full length; source: E. coli Rosetta pLysS, purified; not shown: GST, N-terminal, kept
binds: all assays above
